The series is described as follows: protein stability index of a GFP-peptide fusion (yeast GPS) (PSI 1-4); higher = more stable; sorted into four equal gates, so the index is relative within each strain. In short, it runs like this:
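Tiled yeast protein peptides of 17 residues were each joined downstream of GFP, on plasmids that also express Cherry. The pooled library was maintained in yeast, and mid-log cultures in leucine-free medium were sorted into four equal gates on the GFP/Cherry ratio. Plasmids from every gate were amplified by PCR and sequenced on Illumina, with barcodes linking reads to strains. The protein stability index of a peptide is its gate-number-weighted read frequency summed over the gates.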

± gives the uncertainty stated by the source.

On to QELQIKRDVLDDLYRKL [CSE2], for which the protein stability index (doa10∆) turned out to be 2.27 ± 0.14 and the protein stability index (pdr5∆) was 2.19 ± 0.15.
Consider KIFIKDPKFVNSLLAKL [YML103C/NUP188], for which the protein stability index (doa10∆) is 2.25 ± 0.14, the protein stability index (pdr5∆) is 2.25 ± 0.063, the protein stability index (san1∆) worked out at 1.72 ± 0.1 and the protein stability index (ubr1∆) stood at 2.39 ± 0.068.
With TRIQYVDFACCTNLTNR [GRR1], the protein stability index came out at 2.82 ± 0.057 (doa10∆), 2.6 ± 0.069 (pdr5∆), 2.58 ± 0.1 (san1∆) and 2.36 ± 0.049 (ubr1∆).
VTLSQLVSVTSTLQHFQ [MED8] returned a protein stability index (doa10∆) of 1.9 ± 0.029, a protein stability index (pdr5∆) of 2.02 ± 0.031, a protein stability index (san1∆) of 1.96 ± 0.037 and a protein stability index (ubr1∆) of 1.87 ± 0.02.
On to YYNEEGIHILLYSGLII [RPC82], for which the protein stability index is 2.01 ± 0.1 (doa10∆), 2.04 ± 0.094 (pdr5∆), 2.14 ± 0.18 (san1∆) and 2.28 ± 0.037 (ubr1∆).
On to KMATDNKINSRNSWNFA [BRN1], for which the protein stability index runs as follows: (pdr5∆) 2.94 ± 0.12; (ubr1∆) 1.92 ± 0.12.
On to VQGMNDDIFIRYLTLLS [ECM29], for which the protein stability index runs as follows: (doa10∆) 1.37 ± 0.053; (pdr5∆) 1.39 ± 0.057; (san1∆) 1.8 ± 0.14; (ubr1∆) 1.15 ± 0.031.
On the same counts, the results for QVIKNEVCAKMPNIELY [SSN2] are 2.83 ± 0.076, 2.81 ± 0.058, 2.7 ± 0.074 and 2.35 ± 0.06.
Turning to NNPLLLIVDVKQQGVGL [RPN8], the protein stability index (doa10∆) was determined as 1.27 ± 0.14, the protein stability index (pdr5∆) was found to be 1.87 ± 0.1, the protein stability index (san1∆) stood at 1.87 ± 0.15 and the protein stability index (ubr1∆) was determined as 2.15 ± 0.1.
On to GLARKFHNMLQTLYTGD [SSN3], for which the protein stability index (doa10∆) stood at 2.91 ± 0.24, the protein stability index (pdr5∆) was 3.25 ± 0.1, the protein stability index (san1∆) was 3.01 ± 0.077 and the protein stability index (ubr1∆) came out at 2.79 ± 0.16.
In the case of SYSPTSPSYSPTSPNYS [RPO21], the protein stability index worked out at 2.88 ± 0.065 (doa10∆), 2.96 ± 0.056 (pdr5∆), 2.84 ± 0.054 (san1∆) and 3.066 ± 0.028 (ubr1∆).
As to LTHVDLIEKFLRYNPLE [RPB10], the protein stability index is 2.91 ± 0.14 (doa10∆), 3.29 ± 0.12 (pdr5∆), 3.23 ± 0.071 (san1∆) and 3.12 ± 0.04 (ubr1∆).
As to TINKAVQVKVLGKYEFS [ESC2], the protein stability index is, setting by setting: (doa10∆) 1.48 ± 0.077; (pdr5∆) 1.37 ± 0.092; (san1∆) 1.89 ± 0.18; (ubr1∆) 2 ± 0.076.
In the case of RKRHQRALKVRNAQAQR [RPS6A], the protein stability index runs as follows: (doa10∆) 3.04 ± 0.14; (pdr5∆) 2.96 ± 0.1; (san1∆) 2.73 ± 0.073; (ubr1∆) 2.96 ± 0.13.
Turning to PAELDLRGSLLSRKPSD [RPC82], the protein stability index came to 2.9 ± 0.13 (doa10∆), 3.38 ± 0.12 (pdr5∆), 3.11 ± 0.099 (san1∆) and 3.19 ± 0.078 (ubr1∆).
As to MDFGVDPSMDPELAMAL [RPN10], the protein stability index runs as follows: (doa10∆) 2.88 ± 0.077; (pdr5∆) 3.15 ± 0.079; (san1∆) 2.99 ± 0.074; (ubr1∆) 2.84 ± 0.069.
INIQSFKDVEHISFNFS [BRR2]: the protein stability index by setting is: (doa10∆) 2.67 ± 0.081; (pdr5∆) 2.79 ± 0.13; (san1∆) 2.67 ± 0.092; (ubr1∆) 2.75 ± 0.061.
For the sequence YVKEKLEAVNSMIEKGG [RPN7], the protein stability index is, setting by setting: (doa10∆) 2.93 ± 0.14; (pdr5∆) 2.98 ± 0.1; (san1∆) 2.77 ± 0.08; (ubr1∆) 2.83 ± 0.06.
Take YVFNARPDGVHVINVGK [RPS0A]: the protein stability index reads like this: (pdr5∆) 2.78 ± 0.24; (ubr1∆) 2.55 ± 0.11.
SAKMILLSDPTITIKSY [PRP8]: the protein stability index is, setting by setting: (doa10∆) 2.23 ± 0.078; (pdr5∆) 1.91 ± 0.09; (san1∆) 3.1 ± 0.099; (ubr1∆) 2.92 ± 0.069.
On to FRCKETHSYNFMRQNLE [RPC82], for which the protein stability index stood at 2.52 ± 0.078 (doa10∆), 1.88 ± 0.093 (pdr5∆), 1.96 ± 0.093 (san1∆) and 2.44 ± 0.065 (ubr1∆).
Take RIMSTRCMMAAQYFYSG [DIS3]: the protein stability index is 1.67 ± 0.06 (doa10∆), 1.95 ± 0.058 (pdr5∆), 1.58 ± 0.079 (san1∆) and 1.77 ± 0.04 (ubr1∆).
The corresponding values for KSSFVKESAVISKQKSK [SMC1] are 2.18 ± 0.1, 2.34 ± 0.046, 2.26 ± 0.064 and 2.37 ± 0.037.
With RSGSNAAASLPSKKLKT [RPC82], the protein stability index reads like this: (doa10∆) 2.71 ± 0.068; (pdr5∆) 2.91 ± 0.078; (san1∆) 2.71 ± 0.05; (ubr1∆) 2.76 ± 0.033.
Turning to KEISTRVFNAKDTTGPK [YCS4], the protein stability index (doa10∆) is 3.04 ± 0.11, the protein stability index (pdr5∆) was determined as 2.91 ± 0.13, the protein stability index (san1∆) is 3.21 ± 0.081 and the protein stability index (ubr1∆) came out at 2.99 ± 0.089.
GLSIHPTQITQYTQRLS [SRP68] had a protein stability index (doa10∆) of 2.09 ± 0.063, a protein stability index (pdr5∆) of 1.93 ± 0.066, a protein stability index (san1∆) of 1.92 ± 0.071 and a protein stability index (ubr1∆) of 2.13 ± 0.071.

The record behind these values is the supplement of paper PMC9732359.
